{
  "source": "patent US11180767B2",
  "about": "“Protease deficient filamentous fungal cells and methods of use thereof” (GLYKOS FINLAND OY, priority 2012, dated 2021)",
  "key": {"[1]": {"tested_on": "rituximab antibody producing strain", "experiment": "Treatment of T. reesei rituximab cultures with inhibitors", "assay_type": "cell-based, Trichoderma reesei", "description": "The effectiveness of the inhibitors was also tested with the rituximab antibody producing strain, which contains a VALEKR linker sequence and the pep1 deletion. This strain was grown in triplicate, in small flasks both in presence or absence of chymostatin, SBTI, or pepstatin A. The small shake flasks contained 50 ml of TrMM plus lactose (40 g/l), spent grain extract (20 g/l), and buffer with 100 mM PIPPS at pH 5.5. The SBTI inhibitor was added to the culture at final concentrations of either 100 μg/ml or 500 μg/ml. Chymostatin was used at 100 μM, and pepstatin A was used at 10 μM. Each of the three inhibitors was added to the cultures daily on day 2, 3, 4, and 5.\nGrowth of the cultures was followed daily by pH from day 2 until day 7. […] In the PIPPS buffered cultures, the pH decreased from an initial pH of 5.5 down to a pH of 4.8 after day 6. With chymostatin and pepstatin A the cultures were monitored up to day 7. On day 7 the average pH for the control bottles was 4.6, while the average pH for chymostatin treated cultures was 4.9, and the average pH of pepstatin A treated cultures was 5.0.\nCulture supernatant samples (30 μl) were also collected on days 3, 4, and 5 for analysis of antibody production. The analysis was performed by immunoblots using an anti-IgG heavy chain antibody AP conjugate (Sigma #A3188) and an anti-light chain antibody AP conjugate (Sigma #A3812). Each antibody was diluted 1:30,000 in TBST. The full length rituximab heavy chain is about 51 kD, the rituximab light chain CHBI fusion is about 100 kD, and the free rituximab light chain is about 28 kD."}, "[2]": {"tested_on": "M369 human growth hormone strain", "experiment": "hGH production in 24 well cultures with inhibitors and supplements", "assay_type": "cell-based, Trichoderma reesei", "conditions": "24 well culture, pH 4.5, day 4 immunoblot", "description": "To evaluate what inhibitors would best stabilize production of hGH, 24 well cultures of these strains were performed. The M369 human growth hormone strain (Δpep1Δtsp1Δslp1Δgap1Δgap2) was grown along with single components or with combinations of the following: trypsin and subtilisin inhibitor SBTI, the acidic protease inhibitor peptide SIP, the acidic protease inhibitor peptide LIP, the aspartic protease inhibitor pepstatin A free peptide, pepstatin A immobilized to agarose beads, the trypsin and subtilisin inhibitor BBI from lima bean, the […] chymostatin, and BSA. Three independent wells were chosen for control wells where no inhibitors or supplements were added. These two strains were grown in 3 ml of TrMM with diammonium citrate without ammonium sulfate, 100 mM PIPPS, 20 g/L spent grain extract, 40 g/L lactose adjusted to pH 4.5. The 24 well plates were shaken at 800 rpm, 85% humidity, and 28° C. The cultures were grown for 6 days and covered with an air permeable membrane.\nInhibitors were added first on day 1 and then daily beginning on day 3. 100 μl samples were taken from the culture wells beginning on day 3. The mycelium was spun down for 5 minutes at 13 k and the supernatant collected. […]"}, "[3]": {"tested_on": "proteases in supernatant from the 6-fold protease deletion strain M400", "experiment": "Protease stability of proteins spiked into supernatant of the 6-fold protease deletion strain", "assay_type": "biochemical, Trichoderma reesei", "conditions": "pepstatin A 50 μM; SBTI 0.2 mg/ml; pH 4.2, 20 hours, 37°C", "description": "The protease stability of the model proteins IGF1, hGH, and IFNα2b were analyzed by spiking them into supernatant from the 6-fold protease deletion strain (Δpep1Δtsp1Δslp1Δgap1Δgap2Δpep4) M400. The supernatant was collected from a large shake flask culture CAH15. The undiluted supernatant from the shake flask cultivation CAH15 was incubated with the purified model proteins with and without pepstatin A (50 μM) and SBTI (0.2 mg/ml) inhibitors for 20 hours at 37° C. The 5 day culture supernatant pH was around 4.2. The reaction containing 0.05 μg μl of model protein was sampled after 20 hours. 50 mM sodium citrate pH 4.0 spiked with model proteins (0.05 g 1) was used as a buffer control.\nFrom each reaction 10 μl was loaded into an 18% SDS PAGE gel and run for 30 minutes at 200 V. The proteins in the gel were then transferred to nitrocellulose for immunoblotting. The nitrocellulose membrane was blocked for 1 hour at room temperature with 5% milk in TBST buffer. The individual blots were probed with their specific primary antibody to detect the appropriate model protein for 1 hour at room temperature on a shaker. The mouse anti-IGF1 antibody (R&D systems #mab291) was used at 2 μg/ml diluted in TBST. The mouse anti-rhGH antibody (Abeam #ab51232) was used at 2 μg/ml diluted in TBST. The mouse anti-IFNα2b antibody (Abeam #ab9386) was used at 1 μg/ml diluted in TBST. […]"}},
  "data": [
    {"molecule": "SBTI: soybean trypsin inhibitor, trypsin and subtilisin inhibitor (protein) DFVLDNEGNPLENGGTYYILSDITAFGGIRAAPTGNERCPLTVVQSRNELDKGIGTIISSPYRIRFIAEGHPLSLKFDSFAVIMLCVGIPTEWSVVEDLPEGPAVKIGENKDAMDGWFRLERVSDDEFNNYKLVFCPQQAEDDKCGDIGISIDHDDGTRRLVVSKNKPLVVQFQKLDKESL", "values": [
      {"measurement": "effect on culture growth (followed by pH)", "setting": "[1]", "value": "no significant differences in the pH"},
      {"measurement": "rituximab light chain production vs untreated cultures", "setting": "[1]; SBTI 100 or 500 μg/ml", "value": "minor improvement"},
      {"measurement": "rituximab heavy chain production vs untreated cultures", "setting": "[1]; day 5, SBTI 100 or 500 μg/ml, chymostatin 100 μM", "value": "several fold higher"},
      {"measurement": "effect on hGH production", "setting": "[2]", "value": "improved production"},
      {"measurement": "stabilisation of hGH, IFNα2b and IGF1 in supernatant", "setting": "[3]", "value": "only a small benefit for product stability"}
    ]}
  ]
}
